{
  "source": "paper PMC3887192",
  "data": [
    {"molecular_target": "HLA A*0201-…", "assay": "SPR", "conditions": "25 °C", "units": {"Kd": "nM", "dG": "kcal/mol-1", "other: Half-life": "s"}, "values": [
      {"substance": "MEL5 TCR MEL5β8 (CDR2&3 mutations, not printed)", "Kd": 170, "dG": -8.61, "other: Half-life": 49.2},
      {"substance": "MEL5 TCR MEL5β3 (CDR2 mutations, not printed)", "Kd": 850, "dG": -7.72, "other: Half-life": 4.2},
      {"substance": "ILA1 TCR ILA1β2 (CDR2 mutations, not printed)", "Kd": 9.1},
      {"substance": "MEL5 TCR MEL5β1 (CDR2 mutations, not printed)", "Kd": 1800, "dG": -7.31, "other: Half-life": 2.4},
      {"substance": "ILA1 TCR ILA1α1β1 (CDR2&3 mutations, not printed)", "Kd": 2},
      {"substance": "MEL5 TCR MEL5β5 (CDR2&3 mutations, not printed)", "Kd": 2100, "dG": -7.22, "other: Half-life": 1.2},
      {"substance": "ILA1 TCR ILA1β1 (CDR2 mutations, not printed)", "Kd": 9.5},
      {"substance": "ILA1 TCR ILA1α1β2 (CDR2&3 mutations, not printed)", "Kd": 3.1},
      {"substance": "MEL5 TCR MEL5β4 (CDR2 mutations, not printed)", "Kd": 1400, "dG": -7.45, "other: Half-life": 3},
      {"substance": "MEL5 TCR MEL5β7 (CDR2&3 mutations, not printed)", "Kd": 540, "dG": -7.97, "other: Half-life": 27.6},
      {"substance": "ILA1 TCR ILA1α1 (CDR3 mutations, not printed)", "Kd": 26, "dG": -9.65, "other: Half-life": 1100},
      {"substance": "MEL5 TCR MEL5β6 (CDR2&3 mutations, not printed)", "Kd": 210, "dG": -8.49, "other: Half-life": 11.4},
      {"substance": "MEL5 TCR MEL5β2 (CDR2 mutations, not printed)", "Kd": 1300, "dG": -7.49, "other: Half-life": 2.4}
    ]}
  ]
}
